Positions count from the first letter of the chain named. In names and notes the source's numbering stands.
Key:
Human CD137 [1] = target: T1, Human CD137 (human, UniProt Q07011 24-255); experiment: flow cytometry on FreeStyle HEK293 cells expressing CD137 (alanine scanning), 3 µg/mL A488-labeled antibody
T1 construct: also called hCD137 wt; 4-1BB

Human CD137 [2] = target: T1, Human CD137; experiment: cell-based or functional assay
Human CD137 [3] = target: T1, Human CD137; experiment: cell-based or functional assay; remark: listed apart in the source
Human PD-L1 = target: T2, Human PD-L1 (human, UniProt Q9NZQ7 19-290); experiment: flow cytometry on MDA-MB-231 tumor cells
T2 construct: Amino acids 1-18 are stated to be a predicted signal peptide; also called CD274; B7H1
T2 sequence (Q9NZQ7 19-290): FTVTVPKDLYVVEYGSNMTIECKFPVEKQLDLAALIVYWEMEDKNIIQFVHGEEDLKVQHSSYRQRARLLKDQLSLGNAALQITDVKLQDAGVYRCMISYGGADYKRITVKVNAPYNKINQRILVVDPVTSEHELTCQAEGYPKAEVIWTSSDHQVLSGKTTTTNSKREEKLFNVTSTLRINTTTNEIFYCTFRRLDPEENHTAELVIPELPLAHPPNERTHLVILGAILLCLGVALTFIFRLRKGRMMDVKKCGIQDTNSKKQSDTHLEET

Human CD137 [4] = target: T1, Human CD137; experiment: flow cytometry on transfected HEK293T-17 cells, 1 µg/mL antibody
Wild boar CD137 = target: T3, Wild boar CD137 (wild boar (Sus scrofa)); experiment: flow cytometry on transfected HEK293T-17 cells
T3 construct: Amino acids 1-23 are stated to be a predicted signal peptide; Expressed on HEK293T-17 cells; also called Sus scrofa CD137
T3 chain: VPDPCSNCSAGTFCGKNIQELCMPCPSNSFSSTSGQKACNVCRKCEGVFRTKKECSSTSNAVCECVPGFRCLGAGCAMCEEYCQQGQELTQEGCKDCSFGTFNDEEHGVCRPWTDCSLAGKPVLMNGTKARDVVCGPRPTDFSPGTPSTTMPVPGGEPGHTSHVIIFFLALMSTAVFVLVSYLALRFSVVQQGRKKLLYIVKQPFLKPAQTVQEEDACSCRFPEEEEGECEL

African elephant CD137 = target: T4, African elephant CD137 (African elephant (Loxodonta africana)); experiment: flow cytometry on transfected HEK293T-17 cells
T4 construct: Amino acids 1-23 are stated to be a predicted signal peptide; Expressed on HEK293T-17 cells; also called Loxodonta africana CD137
T4 chain: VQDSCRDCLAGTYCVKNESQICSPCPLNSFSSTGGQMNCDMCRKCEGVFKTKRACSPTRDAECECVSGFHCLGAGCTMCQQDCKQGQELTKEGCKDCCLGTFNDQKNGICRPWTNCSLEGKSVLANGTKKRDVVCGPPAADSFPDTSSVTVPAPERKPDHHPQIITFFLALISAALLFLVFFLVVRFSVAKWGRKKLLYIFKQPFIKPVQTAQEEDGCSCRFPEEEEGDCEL

[5] = target: T5, Human CD137 shuffle 5 (amino acids 48-88 of African elephant CD137) (human with African elephant residues …, UniProt Q07011 24-255); experiment: flow cytometry on transfected HEK293T-17 cells
T5 construct: also called shuffle construct 5; shuffle 5/elephant
T5 chain: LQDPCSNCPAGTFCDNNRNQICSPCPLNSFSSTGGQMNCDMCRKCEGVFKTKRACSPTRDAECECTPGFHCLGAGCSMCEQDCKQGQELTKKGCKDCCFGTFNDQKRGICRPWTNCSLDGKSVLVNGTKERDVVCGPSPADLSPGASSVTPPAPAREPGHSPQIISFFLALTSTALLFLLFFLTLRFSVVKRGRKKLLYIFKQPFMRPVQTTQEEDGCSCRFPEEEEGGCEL

B1: b12-FEAL×CD137-009-FEAR-A488 (bispecific antibody, not shown: large carriers)
heavy 1: QVQLVQSGAEVKKPGASVKVSCQASGYRFSNFVIHWVRQAPGQRFEWMGWINPYNGNKEFSAKFQDRVTFTADTSANTAYMELRSLRSADTAVYYCARVGPYSWDDSPQDNYYMDVWGKGTTVIVSSASTKGPSVFPLAPSSKSTSGGTAALGCLVKDYFPEPVTVSWNSGALTSGVHTFPAVLQSSGLYSLSSVVTVPSSSLGTQTYICNVNHKPSNTKVDKRVEPKSCDKTHTCPPCPAPEFEGGPSVFLFPPKPKDTLMISRTPEVTCVVVAVSHEDPEVKFNWYVDGVEVHNAKTKPREEQYNSTYRVVSVLTVLHQDWLNGKEYKCKVSNKALPAPIEKTISKAKGQPREPQVYTLPPSREEMTKNQVSLTCLVKGFYPSDIAVEWESNGQPENNYKTTPPVLDSDGSFLLYSKLTVDKSRWQQGNVFSCSVMHEALHNHYTQKSLSLSPGK
light 1: EIVLTQSPGTLSLSPGERATFSCRSSHSIRSRRVAWYQHKPGQAPRLVIHGVSNRASGISDRFSGSGSGTDFTLTITRVEPEDFALYYCQVYGASSYTFGQGTKLERK
heavy 2: QSLEESGGRLVTPGTPLTLTCTVSGFSLNDYWMSWVRQAPGKGLEWIGYIDVGGSLYYASWAKGRFTISRTSTTVDLKMTSLTTEDTATYFCARGGLTYGFDLWGPGTLVTVSSASTKGPSVFPLAPSSKSTSGGTAALGCLVKDYFPEPVTVSWNSGALTSGVHTFPAVLQSSGLYSLSSVVTVPSSSLGTQTYICNVNHKPSNTKVDKRVEPKSCDKTHTCPPCPAPEFEGGPSVFLFPPKPKDTLMISRTPEVTCVVVAVSHEDPEVKFNWYVDGVEVHNAKTKPREEQYNSTYRVVSVLTVLHQDWLNGKEYKCKVSNKALPAPIEKTISKAKGQPREPQVYTLPPSREEMTKNQVSLTCLVKGFYPSDIAVEWESNGQPENNYKTTPPVLDSDGSFFLYSRLTVDKSRWQQGNVFSCSVMHEALHNHYTQKSLSLSPGK
light 2: DIVMTQTPASVSEPVGGTVTINCQASEDISSYLAWYQQKPGQRPKRLIYGASDLASGVPSRFSASGSGTEYALTISDLESADAATYYCHYYATISGLGVAFGGGTEVVVKRTVAAPSVFIFPPSDEQLKSGTASVVCLLNNFYPREAKVQWKVDNALQSGNSQESVTEQDSKDSTYSLSSTLTLSKADYEKHKVYACEVTHQGLSSPVTKSFNRGEC
B1: binds (Human CD137 [1]).

B2: PD-L1-547-FEAL×CD137-009-HC7LC2-FEAR (bispecific antibody, human IgG1, kappa, lambda)
heavy 1: EVQLLEPGGGLVQPGGSLRLSCEASGSTFSTYAMSWVRQAPGKGLEWVSGFSGSGGFTFYADSVRGRFTISRDSSKNTLFLQMSSLRAEDTAVYYCAIPARGYNYGSFQHWGQGTLVTVSSASTKGPSVFPLAPSSKSTSGGTAALGCLVKDYFPEPVTVSWNSGALTSGVHTFPAVLQSSGLYSLSSVVTVPSSSLGTQTYICNVNHKPSNTKVDKRVEPKSCDKTHTCPPCPAPEFEGGPSVFLFPPKPKDTLMISRTPEVTCVVVAVSHEDPEVKFNWYVDGVEVHNAKTKPREEQYNSTYRVVSVLTVLHQDWLNGKEYKCKVSNKALPAPIEKTISKAKGQPREPQVYTLPPSREEMTKNQVSLTCLVKGFYPSDIAVEWESNGQPENNYKTTPPVLDSDGSFLLYSKLTVDKSRWQQGNVFSCSVMHEALHNHYTQKSLSLSPGK
light 1: SYVLTQPPSVSVAPGQTARITCGGNNIGSKSVHWYQQKPGQAPVLVVYDDNDRPSGLPERFSGSNSGNTATLTISRVEAGDEADYYCQVWDSSSDHVVFGGGTKLTVLGQPKAAPSVTLFPPSSEELQANKATLVCLISDFYPGAVTVAWKADSSPVKAGVETTTPSKQSNNKYAASSYLSLTPEQWKSHRSYSCQVTHEGSTVEKTVAPTECS
heavy 2: EVQLVESGGGLVQPGRSLRLSCTASGFSLNDYWMSWVRQAPGKGLEWVGYIDVGGSLYYAASVKGRFTISRDDSKSIAYLQMNSLKTEDTAVYYCARGGLTYGFDLWGQGTLVTVSSASTKGPSVFPLAPSSKSTSGGTAALGCLVKDYFPEPVTVSWNSGALTSGVHTFPAVLQSSGLYSLSSVVTVPSSSLGTQTYICNVNHKPSNTKVDKRVEPKSCDKTHTCPPCPAPEFEGGPSVFLFPPKPKDTLMISRTPEVTCVVVAVSHEDPEVKFNWYVDGVEVHNAKTKPREEQYNSTYRVVSVLTVLHQDWLNGKEYKCKVSNKALPAPIEKTISKAKGQPREPQVYTLPPSREEMTKNQVSLTCLVKGFYPSDIAVEWESNGQPENNYKTTPPVLDSDGSFFLYSRLTVDKSRWQQGNVFSCSVMHEALHNHYTQKSLSLSPGK
light 2: DIVMTQSPSSLSASVGDRVTITCQASEDISSYLAWYQQKPGKAPKRLIYGASDLASGVPSRFSASGSGTDYTFTISSLQPEDIATYYCHYYATISGLGVAFGGGTKVEIKRTVAAPSVFIFPPSDEQLKSGTASVVCLLNNFYPREAKVQWKVDNALQSGNSQESVTEQDSKDSTYSLSSTLTLSKADYEKHKVYACEVTHQGLSSPVTKSFNRGEC
B2 was tested, and the “EC50 value, CD8+ T-cell expansion, donor 1, 0.03 µg/ml anti-CD3” value (Human CD137 [2]) was 0.0122 µg/mL and the “EC50 value, CD8+ T-cell expansion, donor 2, 0.09 µg/ml anti-CD3” value (Human CD137 [2]) was 6.89 ng/mL.

B3: CD137-009-FEAL×PD-L1-547-FEAR (bispecific antibody, human IgG1, kappa, lambda)
heavy 1: B1 heavy 2 with F402L, R406K
light 1: B1 light 2
heavy 2: B2 heavy 1 with L409F, K413R
light 2: B2 light 1
With B3 the “EC50 of the induction of antigen-specific T cell proliferation, '% divided cells'” value (Human CD137 [3]) was 3.49 ng/mL and the “EC50 of the induction of antigen-specific T cell proliferation, 'proliferation index'” value (Human CD137 [3]) was 5.39 ng/mL.

B4: b12-FEAL×PD-L1-547-FEAR (bispecific antibody, not shown: large carriers)
heavy 1: B1 heavy 1
light 1: B1 light 1
heavy 2: B2 heavy 1 with L409F, K413R
light 2: B2 light 1
notes: also called monovalent PD-L1 antibody; monovalent PD-L1-control antibody
B4: binds (Human PD-L1).

B5: CD137-009 (antibody, human IgG1, kappa, V domains shown)
VH: QSLEESGGRLVTPGTPLTLTCTVSGFSLNDYWMSWVRQAPGKGLEWIGYIDVGGSLYYASWAKGRFTISRTSTTVDLKMTSLTTEDTATYFCARGGLTYGFDLWGPGTLVTVSS
VL: DIVMTQTPASVSEPVGGTVTINCQASEDISSYLAWYQQKPGQRPKRLIYGASDLASGVPSRFSASGSGTEYALTISDLESADAATYYCHYYATISGLGVAFGGGTEVVVKR
notes: Rabbit variable regions on human IgG1; also called chimeric CD137 antibody; rabbit anti-CD137-009
B5: binds (Human CD137 [4]); no binding (tested: 1 µg/mL) (Wild boar CD137); no binding (tested: 1 µg/mL) (African elephant CD137). B5: no binding (tested: 1 µg/mL) [5].

B6: PD-L1-547-FEAR (antibody, human IgG1, lambda, V domains shown)
VH: EVQLLEPGGGLVQPGGSLRLSCEASGSTFSTYAMSWVRQAPGKGLEWVSGFSGSGGFTFYADSVRGRFTISRDSSKNTLFLQMSSLRAEDTAVYYCAIPARGYNYGSFQHWGQGTLVTVSS
VL: SYVLTQPPSVSVAPGQTARITCGGNNIGSKSVHWYQQKPGQAPVLVVYDDNDRPSGLPERFSGSNSGNTATLTISRVEAGDEADYYCQVWDSSSDHVVFGGGTKLTVLG
notes: Human IgG1 lambda with L234F, L235E, D265A and K409R
B6: binds (Human PD-L1).

B7: CD137-005-FEAR-A488 (antibody, V domains shown)
VH: QSVEESGGRLVTPGTPLTLTCTASGFTISDFHVTWVRQAPGKGLEWIGTIITSASTTAYATWARGRFTISKSSTTVNLKIVSPTTEDTATYFCARSTYTDTSGYYFDFWGQGTLVTVSS
VL: AQVLTQTASPVSAAVGGTVIINCQSSQSIYNGNRLSWYQQKPGQPPKLLIYSASTLASGVSSRFKGSGSGTQFTLAISDVQSDDAATYYCLGSYDCDSADCFAFGGGTEVVVER
notes: Conjugated with Alexa Fluor 488
B7: binds (Human CD137 [1]).
